Experimental data published in US20240327460A1, “NORA INHIBITORS AND METHODS OF USE” (priority 2021, published 2024).
Numbering of substitutions follows the chain as printed. Numbers in names are those of the source. Where two headings read alike, the source gives them in different places.

Experiments:
[1] = tested on: MRSA; assay type: cell-based, Staphylococcus aureus
Experimental: To test the effects of peptides, overnight cultures of wild-type MRSA and MRSA^ΔnorA in TSB media were diluted 1:1,000 in TSB with varying concentrations of peptides, in the presence or the absence of norfloxacin (12.5 μg/ml). All the peptide concentrations contained equal amount of the DMSO vehicle. OD600nm was measured as a function of time in a BioScreen C device at 37° C. with shaking between measurements every 15 min. Three independent experiments were acquired; reported errors reflect the standard deviation among the independent experiments.

[2] = target: T1, NorA (Staphylococcus aureus, UniProt Q5HHX4); assay: Fluorescence polarization (FP) binding of FITC-NPI-1 to NorA; parameters: species or system S. aureus
T1 construct: made in house; host or cells: C43 (DE3) E. coli
Experimental: Amphipol-purified NorA underwent an additional round of SEC to remove free amphipol. Fluorescence polarization (FP) experiments were performed on a DTX 880 Multimode Detector (Beckman) at 25° C. with excitation and emission wavelengths set to 485 and 525 nm, respectively. For NorA binding assays, increasing concentrations of NorA were added to wells of 15 nM FITC-NPI-1 in 100 μL solutions of 20 mM Tris pH 7.5, 100 mM NaCl, 10% glycerol, 0.1% pluronic acid, and 1.2% DMSO on black, U-shape 96 well plates (BRANDplates). All samples were incubated for 15 min on a shaking plate. FP values as a function of NorA concentration ([L]) were fit using the following quadratic binding equation in GraphPad Prism to obtain the binding affinity (Kd) for FITC-NPI-1 ([P]T).
Ymax and Yoffset are normalization parameters. The reported Kd value and error for FITC-NPI-1 reflects the average and standard deviation among seven independent experiments, each performed in triplicate.

[3] = target: T1, NorA; assay: Competitive MST peptide binding experiment (NPI-1 versus labelled Fab36); parameters: species or system S. aureus; conditions: NorA 6 μM, Fab36 40 nM, NPI-1 1.5 nM to 50 μM
Experimental: Competitive peptide binding experiments were performed with MST using fluorescently labelled Fab36 as described above. These experiments used fixed concentrations of NorA in PMAL-C8 amphipol at 6 μM and Fab36 at 40 nM, and a variable concentration of NPI-1 from 1.5 nM to 50 μM. Competitive peptide binding experiments were collected with three replicates.

[4] = target: T2, NorA (Staphylococcus aureus, UniProt Q5HHX4); assay: Microscale thermophoresis (MST) binding of fluorescently labelled Fabs to NorA in PMAL-C8 amphipol; parameters: species or system S. aureus; conditions: labelled Fab 40 nM
T2 construct: made in house; host or cells: C43 (DE3) E. coli
T2 sequence (Q5HHX4 whole entry, looked up): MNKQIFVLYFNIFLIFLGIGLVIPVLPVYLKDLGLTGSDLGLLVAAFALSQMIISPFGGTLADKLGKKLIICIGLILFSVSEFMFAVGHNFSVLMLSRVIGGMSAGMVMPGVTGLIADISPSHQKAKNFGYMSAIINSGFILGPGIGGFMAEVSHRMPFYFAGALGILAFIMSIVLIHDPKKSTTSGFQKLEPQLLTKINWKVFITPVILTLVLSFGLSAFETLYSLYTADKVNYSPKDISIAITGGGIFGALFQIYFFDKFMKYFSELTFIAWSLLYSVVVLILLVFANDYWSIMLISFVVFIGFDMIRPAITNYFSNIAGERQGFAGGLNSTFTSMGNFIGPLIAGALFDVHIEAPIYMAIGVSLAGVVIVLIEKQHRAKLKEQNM
Experimental: Amphipol-purified NorA underwent an additional round of SEC to remove free amphipol. Purified Fabs were prepared as described above and labelled with a primary amine-reactive 647 nm fluorophore (Nanotemper) according to the manufacturer's instructions. Efficient labelling was verified spectroscopically by measuring absorbance at 280 and 650 nm. Microscale thermophoresis (MST) experiments were performed on a Monolith NT.115 Pico instrument (Nanotemper Technologies). Labelled Fab at 40 nM final concentration was mixed with NorA in 20 mM Tris pH 7.0, 100 mM NaCl, and 0.025% (w/v) Tween-20. All samples were incubated for 15 min and loaded into premium glass capillaries. The normalized fluorescent signal (Fnorm) was plotted as a function of ligand concentration and fit with a non-linear sigmoidal regression model (GraphPad Prism) using a Hill slope equal to 1.0 to obtain the Kd values. The error in Kd values for Fab25 (1.2±0.7 μM) and Fab36 (140±20 nM) represent the average and standard deviation of two independent runs with three replicates per independent run. The error range in the Kd value for Fab36^W133A (2 to 4 μM) corresponds to the 95% confidence interval of the non-linear fit. […] MST binding experiments with Fab36^W133A and Fab36^R134A were collected with three replicates each.

[5] = target: T2, NorA; assay: Inhibition of NorA by Fabs in E. coli (co-expression growth inhibition assay); assay type: cell-based, S. aureus; conditions: E. coli co-expressing NorA and Fab; for E. coli growth inhibition in the presence of norfloxacin: 1.2 μg/ml norfloxacin, arabinose-induced Fab, OD600nm; for E. coli growth inhibition in the absence of norfloxacin: no norfloxacin
From the text: NorA was encoded in a pTrcHis2C plasmid (ampicillin resistance) with a C-terminal myc-tag (Yu et al., “NorA Functions as a Multidrug Efflux Protein in Both Cytoplasmic Membrane Vesicles and Reconstituted Proteoliposomes,” J Bacteriol 184:1370-1377 (2002), which is hereby incorporated by reference in its entirety), while Fabs were cloned in a pBAD33 plasmid (gentamicin resistance) (Jimenez et al., “Genetics and Proteomics of Aeromonas salmonicida Lipopolysaccharide Core Biosynthesis,” J Bacteriol 191:2228-2236 (2009), which is hereby incorporated by reference in its entirety) with a C-terminal Avi-tag on the heavy chain of the Fab. Competent Top10 E. coli were co-transformed with vectors containing NorA and Fabs (Fab25, Fab36, or Fabcontrol) and grown on LB agar plates infused with carbenicillin and gentamicin. For time dependent growth curves, a single colony from the transformation was inoculated into TBG media in the presence of carbenicillin and gentamicin. The culture was grown to saturation for ˜20 hr at 30° C. Cultures were diluted by 300-fold into fresh TBG media containing carbenicillin and gentamicin, norfloxacin (0 or 1.2 μg/ml), and arabinose (0%, 0.0001%, 0.0005%, 0.0025%, 0.01%, 0.05%, 0.1%, 0.2%, 0.4%, or 0.8%). OD600nm was measured as a function of time in a BioScreen Pro C device at 30° C. with shaking between measurements every 15 min. Four independent experiments were acquired with two technical replicates per experiment; reported errors reflect the standard deviation among the experiments. Immunoblot (IB) analyses were performed on E. coli lysates co-expressing NorA and Fabs following 24 hr of growth in TBG media in the absence of norfloxacin. Primary antibodies at 1:1,000 dilutions detected the C-terminal myc tag on NorA (Genscript) and the C-terminal Avi tag on the heavy chain of the Fab (Genscript). IB analyses were repeated two independent times.
The insertion of Fab CDRH3 loops into the substrate binding pocket of NorA, as observed in the cryo-EM structures, afforded the expectation that Fab binding would inhibit antibiotic efflux (FIGS. 1A-1D, 4G). […] Since NorA is located within the inner membrane and confers norfloxacin resistance to E. coli (FIG. 6D), growth inhibition was assessed by co-expressing Fabs in the periplasm to allow access to the extracellular face of NorA. Growth curves (OD600 nm vs. time) were quantified with or without norfloxacin and with variable concentrations of arabinose for inducing Fab expression.

[6] = target: T2, NorA; assay: NorA pull-down from E. coli co-expressing NorA and Fabs, immunoblot; assay type: binding, S. aureus; conditions: co-expression with 0.2% arabinose
[7] = target: T3, S. aureus NorA with a carboxy-terminal decahistidine tag, purified (Staphylococcus aureus), Q5HHX4
T3 chain: T2 sequence (Q5HHX4 whole entry, looked up)

[8] = target: T3, S. aureus NorA with a carboxy-terminal …
[9] = target: T4, Native NorA of MRSA (USA300 strain JE2) (Staphylococcus aureus), Q5HHX4; assay: cell-based or functional assay
T4 chain: T2 sequence (Q5HHX4 whole entry, looked up)

[10] = target: T5, S. aureus NorA with a carboxy-terminal decahistidine tag, purified (Staphylococcus aureus, UniProt Q5HHX4 1-388)
T5 sequence: T2 sequence (Q5HHX4 whole entry, looked up)

[11] = target: T5, S. aureus NorA with a carboxy-terminal …; assay: MST
[12] = target: T5, S. aureus NorA with a carboxy-terminal …; remark: listed apart in the source
[13] = target: T5, S. aureus NorA with a carboxy-terminal …; assay: MST; range is the 95% confidence interval of the non-linear fit

H-YYYYAWRVGGYWR-NH2 [NPI-1, NH2-YYYYAWRVGGYWR-CONH2]
IC50 ([1]; in the presence of 12.5 μg/ml norfloxacin, 10 hr timepoint, read-out: IC50 growth inhibition of MRSA): 720 ± 80 nM | growth of MRSA in the absence of norfloxacin ([1]; peptide alone, no norfloxacin): did not inhibit the growth of MRSA | Kd [2]: 10 ± 5 nM | greater affinity to NorA ([2]; NPI-1 relative to Fab36): ~14 fold | displacement of bound Fab36 from NorA [3]: could displace bound Fab36 from NorA

B1: Fab25: synthetic antigen-binding fragment binding NorA; CDRH3 SEQ ID NO: 6; VH SEQ ID NO: 30, VL SEQ ID NO: 31 (antibody, V domains shown)
VH: EVQLVESGGGLVQPGGSLRLSCAASGFTFSSSSIHWVRQAPGKGLEWVASISSSSGSTSYADSVKGRFTISADTSKNTAYLQMNSLRAEDTAVYYCARWETGYYPYWRMYGFYWALDYWGQGTLVTVSS
VL: DIQMTQSPSSLSASVGDRVTITCRASQSVSSAVAWYQQKPGKAPKLLIYSASSLYSGVPSRFSGSRSGTDFTLTISSLQPEDFATYYCQQSSSSLITFGQGTKVEIKRTV
modifications: NorA Antibody N3-25, Heavy Chain Variable Region; NorA Antibody N3-25, Light Chain Variable Region
Kd [4]: 1200 ± 700 nM | E. coli growth inhibition in the presence of norfloxacin [5]: showed inhibition of NorA, albeit to a lesser extent than for Fab36 | E. coli growth inhibition in the absence of norfloxacin [5]: no growth inhibition | Fab in elution fraction of purified NorA [6]: contained the Fabs as detected through immunoblotting

H-YYYYAWRVGGYWR-NH2 [NPI-1 (NorA peptide inhibitor), NH2-…-CONH2]
EC50 [7]: 6290 nM | IC50 (read off the curve) [8]: 7000 nM | IC50 of dose-dependent growth inhibition of MRSA in the presence of norfloxacin (12.5 µg/ml), 10 hr timepoint [9]: 720 nM

B2: Fab36 (Fab, V domains shown)
VH: EVQLVESGGGLVQPGGSLRLSCAASGFTFSSSSIHWVRQAPGKGLEWVASISSSSGSTSYADSVKGRFTISADTSKNTAYLQMNSLRAEDTAVYYCARYSRYYYYAWRVGGYWGGLDYWGQGTLVTVSS
VL: DIQMTQSPSSLSASVGDRVTITCRASQSVSSAVAWYQQKPGKAPKLLIYSASSLYSGVPSRFSGSRSGTDFTLTISSLQPEDFATYYCQQSSSSLITFGQGTKVEIKR
notes: also called N3-36
Kd [10]: 140 nM | fold tighter binding affinity against Fab25 [11]: ~9 fold

B3: Fab36: synthetic antigen-binding fragment binding NorA; CDRH3 SEQ ID NO: 7; VH SEQ ID NO: 32, VL SEQ ID NO: 33 (antibody, V domains shown)
VH: B2 VH
VL: B1 VL
modifications: NorA Antibody N3-36, Heavy Chain Variable Region; NorA Antibody N3-36, Light Chain Variable Region
E. coli growth inhibition in the presence of norfloxacin [5]: strongly attenuated E. coli growth in an arabinose-dependent manner | E. coli growth inhibition in the absence of norfloxacin [5]: no growth inhibition | Fab in elution fraction of purified NorA [6]: contained the Fabs as detected through immunoblotting

B4: Fab36^W133A (Fab, V domains shown)
VH: B2 VH with W107A
VL: B2 VL
fold reduced binding affinity against Fab36 [11]: ~20 fold | Kd [12]: 2800 nM | Kd [13]: 2000 to 4000 nM
